From patent US7645449B2, “Sensitizing cells for apoptosis by selectively blocking cytokines” (priority 2003, dated 2010)

Assays:
Format in all cases: cell-based, human
[1] = system: LNCaP prostate cancer cells; assay: MTS viability of LNCaP cells: chemotherapy- and anti-CD95-induced apoptosis
Method: (§1) Human LNCAP prostate cancer cell line and human MDA-MB-231 breast cancer cell line were obtained from the American Type Culture Collection (ATCC, Manassas, Va.). Human RT112 bladder carcinoma cell line was kindly provided by Dr. M. Cippitelli (Regina Elena Cancer Institute, Rome, Italy). Cells were grown in RPMI 1640 (Life Technologies Inc., Grand Island, N.Y.) containing 10% heat inactivated fetal bovine serum supplemented with L-Glutamine 2 mM and 100 units/ml Penicillin-Streptomycin. Cells were kept in 5% CO2 atmosphere and routinely passaged when 80-85% confluent. […]
(§2) Cell viability was determined using the CellTiter 96® AQueous One Solution Cell Proliferation Assay (Promega, Madison, Wis.), according to the manufacturer's instructions. The assay is based on reduction of 3-(4,5-dimethylthiazol-2-yl)-5-(3-carboxymethoxyphenyl)-2-(4-sulfophenyl)-2H-tetrazolium, inner salt (MTS) to a colored formazan product that is measured spectrophotometrically. […] After 3 hours of incubation at 37° C. with the MTS reagent, the plates were read on a Multilabel Counter (Victor2, Wallac, Perkin-Ehmer Inc., Norwalk, Conn.) and dye absorbance was measured at 490 nm.
(§3) The percentage of apoptotic cells was derived from the percentage of viable cells that was directly calculated from the values of the MTS assay.

[2] = system: MDA-MB-231 breast cancer cells; assay: MTS viability of MDA-MB-231 cells: chemotherapy- and anti-CD95-induced apoptosis
Method: as §1, §2, §3

[3] = system: Bcl-XL and cFlip/FLAME-1 in LNCap prostate cancer cells; assay: Immunoblot of Bcl-XL and cFlip/FLAME-1 in LNCaP cells; conditions: following IL-4 treatment
Method: (§4) The observation that prostate and breast tumor cells treated with IL-4 display a reduced sensitivity to death induced by CD95 and chemotherapeutic drugs led us to investigate whether this cytokine would influence the expression of apoptosis regulatory genes. […] Therefore, IL-4-mediated increased survival in bladder, prostate and breast cancer cells is associated with upregulation of anti-apoptotic proteins.
(§5) Cell pellets were washed twice with cold PBS and lysed on ice for 30 minutes with 1% NP40 lysis buffer (20 mM Tris-HCl pH 7.2, 200 mM NaCl, 1% NP40) in the presence of 1 mM phenylmethylsulphonyl fluoride (PMSF) and 2 μg/ml each of aprotinin, leupeptin and pepstatin. Cell debris was removed by centrifugation at 13,000 rpm for 10 minutes at 4° C. Lysate concentration was determined using the Bio-Rad protein assay (Bio-Rad Laboratories, Richmond, Calif.). Aliquots of cell extracts containing 30 μg of total protein were resolved on 10% or 12% SDS-PAGE and transferred to a Hybond-C extra nitrocellulose membrane (Amersham Pharmacia Biotech, Piscataway, N.J.). […]

[4] = system: cFlip/FLAME-1 in MDA-MB-231 cells; assay: Immunoblot of Bcl-XL and cFlip/FLAME-1 in MDA-MB-231 cells; conditions: following IL-4 treatment
Method: as §4, §5

[5] = system: freshly isolated normal breast epithelial cells; assay: Bcl-XL expression and chemotherapy-induced apoptosis in normal breast epithelial cells exposed to IL-4
Excerpt: To confirm that IL-4-induced upregulation of Bcl-XL is able to protect epithelial breast cells from apoptosis, freshly isolated normal breast epithelial cells were exposed to IL-4 and analyzed Bcl-XL expression and sensitivity to a panel of chemotherapeutic drugs commonly used to treat breast cancer. […] To confirm that in vivo exposure to IL-4 is responsible for high Bcl-XL expression and resistance to chemotherapy in breast cancer, Bcl-XL expression and sensitivity to apoptosis of primary breast carcinoma cells cultivated in the presence or absence of IL-4 was measured Freshly isolated breast cancer cells expressed high levels of Bcl-XL and were scarcely sensitive to chemotherapeutic drugs (FIGS. 14C and D). […] Thus, in vivo IL-4 production promotes the survival of breast cancer cells. […]
Cell pellets were washed twice with cold PBS and lysed on ice for 30 minutes with 1% NP40 lysis buffer (20 mM Tris-HCl pH 7.2, 200 mM NaCl, 1% NP40) in the presence of 1 mM phenylmethylsulphonyl fluoride (PMSF) and 2 μg/ml each of aprotinin, leupeptin and pepstatin. […] Lysate concentration was determined using the Bio-Rad protein assay (Bio-Rad Laboratories, Richmond, Calif.). […]

[6] = cytokine pretreatment, 30 ng/ml anti-CD95 agonistic antibody

B1: IL-4: human recombinant IL-4 (protein, UniProt P05112 25-153, looked up)
Interleukin-4: HKCDITLQEIIKTLNSLTEQKTLCTELTVTDIFAASKNTTEKETFCRAATVLRQFYSHHEKDTRCLGATAQQFHRHKQLIRFLKRLDRNLWGLAGLNSCPVKEANQSTLENFLERLKTIMREKYSKCSS
In the case of B1, the “anti-CD95-induced apoptosis of LNCaP cells” value [1, 6] is reported as “greatly reduced anti-CD95-induced apoptosis”, the “drug-induced death of LNCaP cells” value ([1]; two days cytokine pretreatment (20 ng/ml), 300 ng/ml cisplatin or 1 μM vincristine) is reported as “significantly protected from drug-induced death” and the “anti-CD95-induced apoptosis of MDA-MB-231 cells” value [2, 6] is reported as “greatly reduced anti-CD95-induced apoptosis”. The “drug-induced death of MDA-MB-231 cells” value ([2]; two days cytokine pretreatment (20 ng/ml), 300 ng/ml cisplatin or 5 μM daunorubicin) was “significantly protected from drug-induced death”, the “levels of Bcl-XL and cFlip/FLAME-1 in LNCap cells” value [3] was “considerably upregulated” and the “cFlip/FLAME-1 level in MDA-MB-231 cells” value [4] was “only a modest increase”. For the same molecule, the “apoptosis of normal breast epithelial cells induced by cisplatin, doxorubicin and taxol” value ([5]; IL-4 pretreatment) was “significantly protected” and the “Bcl-XL expression in normal breast epithelial cells” value ([5]; IL-4 treatment) was “considerably increased the expression of Bcl-XL”.
